Measured values as given in patent US20260209311A1, “MODIFIED G PROTEIN COUPLED RECEPTOR AND USE THEREOF” (ALPHELIX BIOTECH CO., LTD., priority 2023, published 2026).

Tests used:
[1] = target: MC4R WT; assay: SPR; 1:1 kinetic, 25 C
[2] = target: MC4R WT; assay: SPR; steady state affinity, 25 C

Kd [1]	Kd [2]	Substance
0.00837 nM	5.74 nM	SHU 9119
35.3 nM	9.72 nM	Setmelanotide
155 nM	313 nM	a-MSH
